Measured values as given in US12286631B2, “Riboswitch modulated gene therapy for retinal diseases” (The Medical College of Wisconsin, Inc., priority 2017, dated 2025).

Tests used:
HEK293T cells [1] = assay: Optimal copy number of riboswitch, GFP plasmids, fluorescence plate reader; type: cell-based; details: plasmids with 0-4 copies of riboswitch, GFP transgene
Procedure: The protocol for both assays are outlined in FIGS. 8A and 8B. For determining optimal copy numbers, plasmids containing 0-4 copies of each riboswitch were created with the transgene as green fluorescence protein (GFP) for readout. HEK293T cells were plated in a 12-well plate and on day 2 transfected with 1 μg of each plasmid DNA. On day 3, cells were observed by fluorescent microscopy (excitation 467-498 nm) and fluorescence was quantified using a plate reader (488 nm excitation 520 nm emission).
As depicted in FIG. 9A, L2Bulge18tc riboswitch was one ON-type riboswitch tested. The cells were treated with 0 μM, 25 μM, 50 μM, 75 μM, and 100 µM of tetracycline (ligand), with the fluorescent microscopy results shown in FIG. 9D.
L2Bulge 9 was also tested (using activating ligand Theophylline), and the optimal copy number was determined to be 3.

HEK293T cells [2] = assay: Dynamic range / dose-responsiveness to activating ligand, firefly luciferase constructs; type: cell-based; details: for Response to ligand in cell culture (firefly luminescence) / Dynamic Range: HEK293T cells; for Response to ligand in cell culture (firefly luminescence): dual luciferase assay, tetracycline or theophylline; for Dynamic Range: optimal copy number, 0-100 μM activating ligand; for Dynamic range compared with similar riboswitches known in the art: 0-100 μM respective ligand, with target miRNA sequence
Procedure: The riboswitches were evaluated in HEK293T cells to determine optimal copy number (largest dynamic range) and dose-responsiveness to its activating ligand using a dual luciferase assay. The ligand used were tetracycline and theophylline.
For determining dynamic range, constructs containing firefly luciferase containing the optimal copy number of the riboswitch were made. HEK293T cells were plated on day 1, and transfected on day 2 with 1 μg of plasmid DNA. Cells were treated with 0-100 μM of the ligand corresponding to the riboswitch and the luminescence was quantified on day 3 using plate reader.
Experiments as described in Example 2A were also carried out using the newly designed Tet-SLIM and Theo-SLIM switches including target miRNA sequence, as depicted in FIGS. 12A and 13A, respectively.

mouse retina = assay: In vivo GFP fluorescence (cSLO) after intravitreal rAAV2 GFP-riboswitch cassette and ligand gavage; parameters: species or system C57Bl/6j mice; details: delivered to the mouse retina using a rAAV2 vector
Procedure: Next, the optimal copy number of each riboswitch was cloned into a rAAV GFP reporter cassette and packaged in an AAV2 capsid. Each GFP-riboswitch cassette was injected intravitreally into C57Bl/6j mice in combination with an AAV2 control vector harboring a non-inducible mCherry reporter gene. Four weeks post-injection, mCherry and GFP fluorescence levels were quantified in vivo using a custom ‘Multiline’ confocal scanning laser ophthalmoscope (cSLO). Mice subsequently received a dose of 1000 mg/kg of its activating ligand (tetracycline, theophylline), and fluorescence levels were quantified 2 and 24 hours post-gavage.

B1: K19: Tetracycline ON switch riboswitch, SEQ ID NO: 15 (nucleic acid)
chain: CAAACAAACAAAGGCGCGTCCTGGATTCGTGGTAAAACATACCAGATTTCGATCTGGAGAGGTGAAGAATACGACCACCTGTAGTATCCAGCTGATGAGTCCCAAATAGGACGAAACGCGCTAAACAAACAAAC
Optimal Copy number (HEK293T cells [1]): 1
Response to ligand in cell culture (firefly luminescence) (HEK293T cells [2]): responded to a ligand
Dynamic Range (HEK293T cells [2]): 1.5-fold
Response to ligand in vivo (mouse retina): responded to a ligand

B2: GuaM8HDV: Guanine OFF switch riboswitch, SEQ ID NO: 14 (nucleic acid)
chain: ATGGCCGGCATGGTCCCAGCCTCCTCGCTGGCGCCGGCTGGGCAATGCTATAATCGCGTGGATATGGCACGCAAGTTTCTACCGGGCACCGTAAATGTCCGACTAGTAGCGAATGGGACGCACAAATCTCTCTAG
Response to ligand in cell culture (firefly luminescence) (HEK293T cells [2]): responded to a ligand
Response to ligand in vivo (mouse retina): responded to a ligand

B3: L2Bulge18tc: Tetracycline ON switch riboswitch, SEQ ID NO: 12 (nucleic acid)
chain: CTCGAGGCGATCGCAAACAAACAAAGCTGTCACCGGATGTGCTTTCCGGTCTGATGAGTCCGTTGTCCAAAACATACCAGATTTCGATCTGGAGAGGTGAAGAATTCGACCACCTGGACGAGGACGGAGGACGAAACAGCAAAAAGAAAAATAAAAATTAATTAATCTTGGGCCC
Optimal Copy number (HEK293T cells [1]): 3
Response to ligand in cell culture (firefly luminescence) (HEK293T cells [2]): responded to a ligand
Dynamic Range (HEK293T cells [2]): 4.3-fold
Response to ligand in vivo (mouse retina): responded to a ligand

B4: L2Bulge9: Theophylline-responsive riboswitch, SEQ ID NO: 11 (nucleic acid)
chain: CTCGAGGCGATCGCAAACAAACAAAGCTGTCACCGGATGTGCTTTCCGGTCTGATGAGTCCGTTGTCCAATACCAGCATCGTCTTGATGCCCTTGGCAGTGGATGGGGACGGAGGACGAAACAGCAAAAAGAAAAATAAAAATTTTTTTTTTAATTAATCTTGGGCCC
Optimal Copy number (HEK293T cells [1]): 3
Response to ligand in cell culture (firefly luminescence) (HEK293T cells [2]): responded to a ligand
Dynamic Range (HEK293T cells [2]): 1.7-fold
Response to ligand in vivo (mouse retina): responded to a ligand

B5: Theo6HDV: Theophylline OFF switch riboswitch, SEQ ID NO: 13 (nucleic acid)
chain: ATGGCCGGCATGGTCCCAGCCTCCTCGCTGGCGCCGGCTGGGCAACCACATACCAGCCGAAAGGCCCTTGGCAGGTGGGCGAATGGGACGCACAAATCTCTCTAGCTTCCCAGAGAGAAGCGAGAGAAAAGTGGCTCTC
Response to ligand in cell culture (firefly luminescence) (HEK293T cells [2]): responded to a ligand
Response to ligand in vivo (mouse retina): responded to a ligand

B6: Tet-SLIM: tetracycline-responsive self-targeting ligand inactivating microRNA (SLIM) switch, SEQ ID NO: 17 (nucleic acid)
chain: CTAGCACGGGTCCCTAAAACATACCGTGAGCGCGAAAGCGCCCCCATTTTGAGTTAGTGAAGCCACAGATGTAACTCAAAATGGGGGCGCTTTCCCGCCTACGGAGAGGTGAAGAATACGACCACCTAGAAGCTTATTGGTACATGATAACACCCCAAAATCGAAGCACTTCAAAAACACCCCAAAATCGAAGCACTTCAAAAACACCCCAAAATCGAAGCACTTCAAAAACACCCCAAAATCGAAGCACTTCAGTCTCAGGCATCGTACGATGTCGACCTGCAGG
Optimal Copy number (HEK293T cells [1]): 1
Dynamic range compared with similar riboswitches known in the art (HEK293T cells [2]): increased dynamic range
Dynamic Range (HEK293T cells [2]): 2.3-fold

B7: Theo-SLIM: theophylline-responsive self-targeting ligand inactivating microRNA (SLIM) switch, SEQ ID NO: 1 (nucleic acid)
chain: CGTATCAGCAGGTCCCATAAGCTTTCGACAATTAACGAGTGTGTACTCGTTCTATCATCTCACAGTTAAAGTCGGGAGAATAGGAGCCGCACGGGTCCTGATACCAGCGTGAGCGGAGAGAATCTTCTTTCTGTCTATTAGTGAAGCCACAGATGTAATAGACAGAAAGAAGATTCTCTCCGCCTACGCCCTTGGCAGCACCGTACGGTTCGATC
Optimal Copy number (HEK293T cells [1]): 1
Dynamic range compared with similar riboswitches known in the art (HEK293T cells [2]): increased dynamic range
Dynamic Range (HEK293T cells [2]): 10.9-fold
